Measured values reported in patent publication US20220251194A1 (Merck Sharp & Dohme, published 2022).
Residue numbers refer to the chain shown, from its start. In names and notes the source's numbering stands.

T1: human LAG-3 (60AXE) (human, UniProt P18627 23-450, limits assumed)
T1 construct: Lot 60AXE is not described further
T1 sequence (looked up): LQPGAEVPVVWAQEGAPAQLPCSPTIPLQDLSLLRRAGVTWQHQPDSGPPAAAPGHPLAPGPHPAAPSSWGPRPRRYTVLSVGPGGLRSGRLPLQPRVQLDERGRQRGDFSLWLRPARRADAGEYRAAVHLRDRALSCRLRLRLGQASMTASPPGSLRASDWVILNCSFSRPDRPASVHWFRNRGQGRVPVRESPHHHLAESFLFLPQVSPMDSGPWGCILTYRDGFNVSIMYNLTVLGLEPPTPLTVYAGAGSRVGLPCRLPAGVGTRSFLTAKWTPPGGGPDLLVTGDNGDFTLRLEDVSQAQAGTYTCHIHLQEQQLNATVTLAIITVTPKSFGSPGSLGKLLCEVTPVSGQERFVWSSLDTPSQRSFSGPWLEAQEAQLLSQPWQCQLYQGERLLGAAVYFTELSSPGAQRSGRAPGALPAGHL

T2: human TIGIT (94AGV) (human, UniProt Q495A1 22-141, limits assumed)
T2 construct: Lot 94AGV is not described further
T2 sequence (looked up): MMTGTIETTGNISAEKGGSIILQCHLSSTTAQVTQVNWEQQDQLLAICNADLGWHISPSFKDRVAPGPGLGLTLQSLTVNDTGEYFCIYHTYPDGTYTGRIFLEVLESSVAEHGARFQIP

B1: Humanized x [LAG3_H][TIGIT_H] BsAb (22D2 VH6 C-term 31C6 scFv VL-VH / VL3 Y31W) IgG1 L234A L235A D265S / Kappa (Lot 80BCK) (bispecific antibody)
heavy: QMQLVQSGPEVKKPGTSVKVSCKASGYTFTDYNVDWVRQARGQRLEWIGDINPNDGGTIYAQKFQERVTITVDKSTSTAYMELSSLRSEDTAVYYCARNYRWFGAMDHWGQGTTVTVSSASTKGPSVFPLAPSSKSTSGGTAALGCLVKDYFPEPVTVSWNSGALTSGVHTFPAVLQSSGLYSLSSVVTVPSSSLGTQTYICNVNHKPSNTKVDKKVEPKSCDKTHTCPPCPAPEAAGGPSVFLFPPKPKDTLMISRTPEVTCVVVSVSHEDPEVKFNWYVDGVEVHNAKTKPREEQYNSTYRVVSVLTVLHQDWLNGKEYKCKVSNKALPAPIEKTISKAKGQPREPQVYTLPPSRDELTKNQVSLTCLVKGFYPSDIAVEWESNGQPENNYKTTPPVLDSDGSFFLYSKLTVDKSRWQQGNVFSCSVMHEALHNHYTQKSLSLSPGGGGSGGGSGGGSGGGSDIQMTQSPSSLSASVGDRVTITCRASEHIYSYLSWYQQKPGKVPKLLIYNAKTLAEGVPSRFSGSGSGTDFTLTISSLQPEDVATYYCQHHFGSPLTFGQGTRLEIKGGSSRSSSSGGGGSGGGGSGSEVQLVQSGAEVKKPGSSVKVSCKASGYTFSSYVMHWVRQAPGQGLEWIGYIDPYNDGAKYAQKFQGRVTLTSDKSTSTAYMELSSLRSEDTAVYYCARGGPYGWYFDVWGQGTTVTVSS
light: DIVMTQTPLSLSVTPGQPASISCKASQSLDWEGDSDMNWYLQKPGQPPQLLIYGASNLESGVPDRFSGSGSGTDFTLKISRVEAEDVGVYYCQQSTEDPRTFGGGTKVEIKRTVAAPSVFIFPPSDEQLKSGTASVVCLLNNFYPREAKVQWKVDNALQSGNSQESVTEQDSKDSTYSLSSTLTLSKADYEKHKVYACEVTHQGLSSPVTKSFNRGEC
notes: Anti-LAG3 IgG1 with an anti-TIGIT scFv at the C-terminus of the heavy chain; also called 80BCK (control); Hz x Hu [LAG3]; [TIGIT]; BsAb (Y31W)
B2: anti-PD-1/LAG-3/TIGIT trispecific antibody (TsAbY31W) (Lot 30BCM) (other)
heavy 1: EVQLVQSGAEVKKPGASVKVSCKASGYTFTSYYLYWVRQAPGQGLEWIGGVNPSNAGTNFNEKFKSRVTLTVDTSISTAYMELSRLRSDDTAVYYCTRRLSHYDGGFDYWGQGTTVTVSSASTKGPSVFPLAPSSKSTSGGTAALGCEVTDYFPEPVTVSWNSGALTSGVHTFPAVLESSGLYSLLSVVTVPSSSLGTQTYICNVNHKPSNTKVDKKVEPKSCDKTHTCPPCPAPEAAGGPSVFLFPPKPKDTLMISRTPEVTCVVVSVSHEDPEVKFNWYVDGVEVHNAKTKPREEQYNSTYRVVSVLTVLHQDWLNGKEYKCKVSNKALPAPIEKTISKAKGQPREPQVYVYPPSRDELTKNQVSLTCLVKGFYPSDIAVEWESNGQPENNYKTTPPVLDSDGSFALVSKLTVDKSRWQQGNVFSCSVMHEALHNHYTQKSLSLSPGGGGSGGGSGGGSGGGSDIQMTQSPSSLSASVGDRVTITCRASEHIYSYLSWYQQKPGKVPKLLIYNAKTLAEGVPSRFSGSGSGTDFTLTISSLQPEDVATYYCQHHFGSPLTFGQGTRLEIKGGSSRSSSSGGGGSGGGGSGSEVQLVQSGAEVKKPGSSVKVSCKASGYTFSSYVMHWVRQAPGQGLEWIGYIDPYNDGAKYAQKFQGRVTLTSDKSTSTAYMELSSLRSEDTAVYYCARGGPYGWYFDVWGQGTTVTVSS
light 1: DIVMTQTPLSLSVTPGQPASISCRASKSVSTSGFSYLHWYLQKPGQPPQLLIFLSKYRSSGVPDRFSGSGSGTDFTLKISRVEAEDVGVYYCSQAYHLPLTFGQGTKLEIKRTVAAPSVFIFPPSDERLKSGTASVVCLLNNFYPREAKVQWKVDNALQSGNSQESVTEQDSKDSTYSLSSRLTLSKADYEKHKVYACEVTHQGLSSPVTKSFNRGEC
heavy 2: QMQLVQSGPEVKKPGTSVKVSCKASGYTFTDYNVDWVRQARGQRLEWIGDINPNDGGTIYAQKFQERVTITVDKSTSTAYMELSSLRSEDTAVYYCARNYRWFGAMDHWGQGTTVTVSSASTKGPSVFPLAPSSKSTSGGTAALGCLVKDYFPEPVTVSWNSGALTSGVHTFPAVLQSSGLYKLSSVVTVPSSSLGTQTYICNVNHKPSNTKVDKKVEPKSCDKTHTCPPCPAPEAAGGPSVFLFPPKPKDTLMISRTPEVTCVVVSVSHEDPEVKFNWYVDGVEVHNAKTKPREEQYNSTYRVVSVLTVLHQDWLNGKEYKCKVSNKALPAPIEKTISKAKGQPREPQVYVLPPSRDELTKNQVSLLCLVKGFYPSDIAVEWESNGQPENNYLTWPPVLDSDGSFFLYSKLTVDKSRWQQGNVFSCSVMHEALHNHYTQKSLSLSPGGGGSGGGSGGGSGGGSDIQMTQSPSSLSASVGDRVTITCRASEHIYSYLSWYQQKPGKVPKLLIYNAKTLAEGVPSRFSGSGSGTDFTLTISSLQPEDVATYYCQHHFGSPLTFGQGTRLEIKGGSSRSSSSGGGGSGGGGSGSEVQLVQSGAEVKKPGSSVKVSCKASGYTFSSYVMHWVRQAPGQGLEWIGYIDPYNDGAKYAQKFQGRVTLTSDKSTSTAYMELSSLRSEDTAVYYCARGGPYGWYFDVWGQGTTVTVSS
light 2: B1 light with Q128E, S135T, T182Y, T184E
notes: Trispecific heterodimeric IgG1 / kappa; also called Y31W mutant; Hz x Hu [PD-1]; [TIGIT]; [LAG3]; TsAb (Y31W)
B3: Humanized 08A IgG4 S61N G56A (antibody, V domains shown)
VH: EVQLVQSGAEVKKPGASVKVSCKASGYTFTSYYLYWVRQAPGQGLEWIGGVNPSNAGTNFNEKFKSRVTLTVDTSISTAYMELSRLRSDDTAVYYCTRRDSNYDGGFDYWGQGTTVTVSS
VL: DIVMTQTPLSLSVTPGQPASISCRASKSVSTSGFSYLHWYLQKPGQPPQLLIFLASNLESGVPDRFSGSGSGTDFTLKISRVEAEDVGVYYCQHSWELPLTFGQGTKLEIKR
notes: IgG4 S228P / kappa; also called 51AQK; Humanized x [PD-1_H] mAb (08A/HuPD1A-11 S61N VH G56A / VL) IgG4 S228P / Kappa
B4: Humanized 08A IgG4 Fab 100 S61N G56A (antibody, V domains shown)
VH: B3 VH with D100L, N102H
VL: B3 VL with A55S, S56K, N57Y, L58R, E59S, Q93S, H94Q, S95A, W96Y, E97H
notes: also called 25AVE

What was measured:
[1] = target: T3, human PD1 on PathHunter U2OS dimer cells (human, UniProt Q15116 25-288); experiment: PathHunter dimerization assay, U2OS cells co-expressing human PD1 and LAG3; the signal needs both targets to be bound on the same cell
T3 construct: whole, on cells; On Human PD1/LAG3 dimer cell Clone #9 (Lot 56AUA) and Human PD1/TIGIT dimer cell Clone #5 (Lot 14BAU); also called hPD1; not shown: beta-galactosidase fragment (ProLink or Enzyme Acceptor)
T3 sequence (Q15116 25-288): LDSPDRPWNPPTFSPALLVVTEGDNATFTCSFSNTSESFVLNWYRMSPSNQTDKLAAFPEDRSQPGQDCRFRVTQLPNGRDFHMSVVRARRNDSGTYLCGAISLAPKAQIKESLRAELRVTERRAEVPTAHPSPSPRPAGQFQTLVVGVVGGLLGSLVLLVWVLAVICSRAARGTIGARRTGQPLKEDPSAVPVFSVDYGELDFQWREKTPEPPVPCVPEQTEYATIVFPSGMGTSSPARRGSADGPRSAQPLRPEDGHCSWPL

[2] = target: T4, Human PD1 (50AFR), [VEGF leader]-Sino-Bio-PD-1_H-[His9G] (human, UniProt Q15116 25-167); experiment: SPR (Biacore T200 or 4000), antibody captured via anti-human Fc, antigen as analyte
T4 construct: Expressed with a VEGF leader; also called PD-1-His (50AFR)
T4 sequence (Q15116 25-167): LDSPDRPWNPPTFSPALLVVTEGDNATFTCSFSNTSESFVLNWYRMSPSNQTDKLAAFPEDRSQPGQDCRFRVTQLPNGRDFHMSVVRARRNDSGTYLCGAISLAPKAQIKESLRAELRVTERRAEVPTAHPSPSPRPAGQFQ
Description: (§1) Binding affinities were measured using a Biacore T200 or Biacore 4000 biosensor (GE Healthcare, Chicago, Ill.). The following running buffer, 10 mM HEPES, 150 mM NaCl, 0.05% v/v Surfactant P20, 3 mM EDTA (GE Healthcare, BR100669, Chicago, Ill.), was used for immobilization, sample dilution and data collection. All experiments were performed at 25° C. Antigen binding to antibodies captured via an anti-human Fc antibody was measured using a Series S Sensor Chip CM5 (GE Healthcare, 29149603, Chicago, Ill.). An anti-human Fc antibody was immobilized on all surfaces of the chip according to the instructions in the Human Antibody Capture Kit (GE Healthcare, BR100839, Chicago, Ill.) and the Amine Coupling Kit (GE Healthcare, BR100633, Chicago, Ill.). […] After the antigen injections the dissociation of the interaction was monitored for 15 minutes. Between binding cycles the antibody and antigen were removed from the chip with a 30 second injection of 3 M MgCl₂.
(§2) The data were processed and fit using Biacore T200 Evaluation Software version 2.0 or Biacore 4000 Evaluation Software version 1.1 (GE Healthcare, Chicago, Ill.). The data were “double referenced” by subtracting the response from a negative control flowcell and subtracting the response from a buffer injection or the average response from two buffer injections. The data were then fit with the ‘1:1 Binding’ model to determine the association rate constant, kₐ (M⁻¹s⁻¹, where “M” equals molar and “s” equals seconds) and the dissociation rate constant, kd (s⁻¹). These rate constants were used to calculate the equilibrium dissociation constant, KD (M)=[…].

[3] = target: T1, human LAG-3 (60AXE); experiment: as above
Description: as §1, §2

[4] = target: T2, human TIGIT (94AGV); experiment: as above
Description: as §1, §2

[5] = target: T5, polyhistidine-tagged human PD-1 (hPD1-His, 98AFK) (human, UniProt Q15116 25-167, limits assumed); experiment: SPR solution affinity; reference Humanized 08A IgG4 S61N (98AIO)
T5 construct: also called human PD1-His; Human PD-1-His
T5 sequence (Q15116 25-167 limits assumed): as the sequence (Q15116 25-167) above
Description: (§3) The titration series were incubated for 16-24 hours to reach equilibrium at room temperature. The unbound sites were measured using a BIAcore chip immobilized with antigen in a competition mode where SPR signal detected corresponded to unbound antibody.
(§4) The titration series following >16 hr. incubation were injected over the sensor chip immobilized with hPD1-His (above). Free, unbound antibodies concentrations were measured as proportional to RU after 120 seconds (for 500 pM mAb series) or 400 seconds (for 100 pM mAb series) of injection at 10 μL/min. After each cycle, surfaces were regenerated with a 30 second injection of 1:1 mixture of 3M MgCl₂ and pH 2.0 10 mM glycine at 30 μL/min.

[6] = target: T5, polyhistidine-tagged human PD-1 …; experiment: SPR (Biacore T200), mAb captured on anti-Fc chip, hPD1-His as analyte
Description: (§5) A surface plasmon resonance (SPR)-based assay utilizing capture mode was used to determine the binding kinetics and affinities of anti-PD-1 antibodies against polyhistidine-tagged human PD-1 (hPD1-His, 98AFK). Following manufacture instructions, a series S sensor chip CM5 (GE Healthcare, BR100530) was activated using an amine-coupling kit (GE Healthcare, BR100050). Either human capture kit (anti-human Fc, 25 μg/mL, GE Healthcare, BR100839) or mouse capture kit (anti-mouse Fc, 30 μg/mL, GE Healthcare, BR100838) antibody diluted in the supplied pH 5.0, 10 mM sodium acetate buffer was immobilized onto the activated surface for 7 minutes. After immobilization, surfaces were deactivated with 1M ethanolamine/HCl (pH 8.5) for 7 minutes.
(§6) Binding kinetics were measured on a biacore T200 in HBS-EP+ (0.01 M HEPES pH 7.4, 0.15 M NaCl, 3 mM EDTA, 0.05% v/v Surfactant P20) running buffer at 25° C. Antibodies were captured either on mouse or human Fc capture surfaces at 10 μL/min flow rate. Antibodies were captured on flow cells 2, 3 and 4. Flow cell 1 was used as a reference with no antibody captured. A 6-point, 2-fold serial dilutions of the analyte 98AFK (hPD1-His), starting at 20 nM, were prepared in the running buffer (HBS-EP+). Two buffer blanks were included for double referencing. Titration series were injected for 3 minutes at 50 μl/min followed by 600 seconds of dissociation. After each cycle, surfaces were regenerated with a 30 second injection of 3M MgCl₂ at […] on the anti-human Fc chip or 180 seconds of 10 mM Glycine pH 1.7 at 10 μl/min on the anti-mouse Fc chip.
(§7) Sensorgram processing and data analysis were performed with Biacore T200 Evaluation Software Version 2.0.4 (GE Healthcare). […] Processed curves were globally fitted to a 1:1 binding model to determine the association rate constant, kₒₙ (M⁻¹s⁻¹, where “M” equals molar and “s” equals seconds) and the dissociation rate constant, koff (s⁻¹). These rate constants were used to calculate the equilibrium dissociation constant, KD (M)=koff/kₒₙ.

[7] = target: T5, polyhistidine-tagged human PD-1 …; experiment: SPR (Biacore T200), mAb captured on anti-Fc chip; reference Mouse 08A
Description: as §5, §6, §7

[8] = target: T5, polyhistidine-tagged human PD-1 …; experiment: SPR solution affinity (Biacore T200, competition mode, equilibrium titration)
Description: as §3, §4

Binder	binding result [1]	Kd [2] [nM]	Kd [3] [nM]	Kd [4] [nM]	KD (REF)/KD [5]	Kd [6] [nM]	KD (REF)/KD [7]	Kd [8] [nM]
B1	no binding	–	–	–	–	–	–	–
B2	–	0.289	0.023	1.09	–	–	–	–
B3	–	–	–	–	1	0.057	4.2	0.033
B4	–	–	–	–	> 13	0.042	5.7	< 0.0025
